From patent publication US20260139001A1 (Harvard, published 2026) come the findings set out here.

The assay addresses RBD (Severe acute respiratory syndrome …, UniProt P59594).

In general, EC50 refers to the concentration giving half of the maximal effect.

B1: Wuhan-NS (VHH72 NoK V104K conjugated with NBD-x; V104NBDxK) (VHH)
VHH: QVQLQESGGGLVQAGGSLRLSCAASGRTFSEYAMGWFRQAPGREREFVATISWSGGSTYYTDSVRGRFTISRDNARNTVYLQMNSLRPDDTAVYYCAAAGLGTKVSEWDYDYDYWGQGTQVTVSS
Consider B1, for which the EC50 was found to be 123 nM.
